Test results published in US20200017592A1 (Regeneron, published 2020).
Residue numbers refer to the chain shown, from its start.

T1: full-length human IL-36R on cells (human, UniProt Q9HB29 20-575)
T1 sequence (looked up): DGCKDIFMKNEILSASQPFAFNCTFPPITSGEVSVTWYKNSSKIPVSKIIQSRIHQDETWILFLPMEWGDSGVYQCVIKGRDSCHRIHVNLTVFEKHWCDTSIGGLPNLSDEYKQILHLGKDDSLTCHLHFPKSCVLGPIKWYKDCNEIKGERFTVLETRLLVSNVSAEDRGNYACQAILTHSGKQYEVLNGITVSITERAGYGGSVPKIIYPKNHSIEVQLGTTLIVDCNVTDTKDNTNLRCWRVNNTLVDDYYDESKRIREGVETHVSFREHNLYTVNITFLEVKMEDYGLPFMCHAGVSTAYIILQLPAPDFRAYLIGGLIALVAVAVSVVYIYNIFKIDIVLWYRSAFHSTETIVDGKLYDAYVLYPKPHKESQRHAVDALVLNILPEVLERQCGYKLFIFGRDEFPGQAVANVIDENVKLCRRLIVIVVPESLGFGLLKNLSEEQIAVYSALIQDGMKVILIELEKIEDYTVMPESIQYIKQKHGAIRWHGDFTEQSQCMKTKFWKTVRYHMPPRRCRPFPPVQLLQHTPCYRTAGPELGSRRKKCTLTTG

T2: Macaca fascicularis IL-36R on cells (Macaca fascicularis, UniProt A0A2K5WSK9 20-558)
T2 sequence: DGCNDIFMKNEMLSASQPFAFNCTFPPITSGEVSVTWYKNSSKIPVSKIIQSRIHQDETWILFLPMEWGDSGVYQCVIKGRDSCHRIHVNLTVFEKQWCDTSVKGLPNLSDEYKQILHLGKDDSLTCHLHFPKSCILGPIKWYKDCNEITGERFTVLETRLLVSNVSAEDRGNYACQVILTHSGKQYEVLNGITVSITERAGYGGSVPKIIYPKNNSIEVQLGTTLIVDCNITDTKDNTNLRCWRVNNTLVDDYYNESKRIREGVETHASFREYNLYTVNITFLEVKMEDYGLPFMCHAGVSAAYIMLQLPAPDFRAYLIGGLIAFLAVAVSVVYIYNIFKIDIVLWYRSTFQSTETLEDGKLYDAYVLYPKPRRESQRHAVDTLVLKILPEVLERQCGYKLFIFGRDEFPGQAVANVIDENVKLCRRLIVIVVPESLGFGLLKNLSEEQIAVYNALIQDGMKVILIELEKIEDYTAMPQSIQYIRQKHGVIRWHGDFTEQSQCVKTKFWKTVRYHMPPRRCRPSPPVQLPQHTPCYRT

B1: H4H14758P (antibody, human IgG4 S228P, kappa, V domains shown)
VH: EVQLVESGGGLVQPGRSLRLSCAASGFTFDDYAMHWVRQAPGKGLEWVSSVRWNGGIIGYADSVKGRFTISRDNAKNSLYLQMNSLRPEDTALYYCAKDIGDVLTGYYGEYGMDVWGQGTTVTVSS
VL: DIQMTQSPSSLSASVGDRVTIACRASQSITTYLNWYQQKPGKAPKLLIYAASSLQSGVPSRFSGSGSGTDFTLTISSLQPEDFATYYCQQSYISPYTFGQGTKLEIKR
B2: H4H14709P (antibody, human IgG4 S228P, kappa, V domains shown)
VH: EVQLVESGGGLVQPGGSLRLSCAASGFTFSDYAMSWVRQAPGKGLEWVSGISGNGGDTYYGDFVKGRFTISRDNSKNTLYLQMNSLRGEDTAAYFCVIDLDYWGQGTLVTVSS
VL: DIQMTQSPSTLSASEGDRVTITCRASQSISSWLAWYQQKPGKAPRLLIYKASILGDGVPSRFSGSGSGTEFTLTISSLQPDDFATYYCHQYNSYLWTFGQGTKVEIKR
B3: H4H14699P2 (antibody, human IgG4 S228P, kappa, V domains shown)
VH: EVQLVESGGGLVQPGRSLRLSCAASGFTFDDYAIHWVRQAPGKGLEWVSVISWNSDIIGYADSVKGRFTVSRDNAKNSLYLQMNSLRTEDTALYYCAKGYNWNFFDYWGQGTLVTVSS
VL: EIVLTQSPATLSLSPGERATLSCRASQSVSSYLAWYQQKPGQAPRLLIYNAANRATDIPARFSGSGSGTDFTLTISSLEPEDFAVYYCQQRSNWPLTFGGGTKVEIKR
notes: Fully human anti-IL-36R antibody
B4: H4H14700P2 (antibody, human IgG4 S228P, kappa, V domains shown)
VH: B3 VH with I34M, A40T, I57V, G59A, A61S, V70I, R87G, Y100H
VL: B3 VL with A51V, S77G, Y87F
B5: H4H14734P2 (antibody, human IgG4 S228P, kappa, V domains shown)
VH: EVQLVESGGGLVKPGGSLRLSCAASGFIFSNAWMNWVRQAPGKGLAWVGRIKTETDGGTTDYAAPVKGRFTISRDDSKNTLYLQMNSVKTEDTAVYYCTGGYSYGDDSSSWNEGYYYYGMDVWGQGTTVTVSS
VL: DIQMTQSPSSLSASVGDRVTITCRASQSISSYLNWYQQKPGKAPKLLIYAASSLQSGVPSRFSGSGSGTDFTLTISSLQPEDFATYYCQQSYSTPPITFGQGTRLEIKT

What was measured:
[1] = biological target: T3, recombinant human IL-36R extracellular domain expressed with a C-terminal myc-myc-hexahistidine tag (human, UniProt Q9HB29 20-337); assay: SPR (Biacore 4000), mAb captured on anti-human Fc, 25°C
T3 construct: also called hIL-36R-MMH; hIL-36R.mmH
Experimental: (§1) Equilibrium dissociation constants (KD values) for IL-36R binding to purified anti-IL-36R antibodies were determined using a real-time surface plasmon resonance biosensor using a Biacore 4000 instrument. The Biacore sensor surface was first derivatized by amine coupling with a monoclonal mouse anti-human Fc antibody (GE, # BR-1008-39) to capture anti-IL-36R monoclonal antibodies. All binding studies were performed in 0.01 M Hepes pH 7.4, 0.15 M NaCl, 3 mM EDTA, and 0.05% v/v Surfactant Tween-20 (HBS-ET running buffer) at 25° C. and 37° C. Different concentrations of IL-36R reagents, human IL-36R extracellular domain expressed with a C-terminal myc-myc-hexahistidine tag (hIL-36R-MMH), Macaca fascicularis IL-36R extracellular domain expressed with a C-terminal myc-myc-hexahistidine tag (mfIL-36R-MMH: mROR1 signal sequence (M1-A29). Macaca fascicularis IL36R_ecto domain (D20-A336).mycmycHis6), human IL-36R extracellular domain expressed with a C-terminal mouse IgG2a Fc tag (hIL-36R-mFc: mROR1 signal sequence (M1-A29)-human IL36R (D20-Y337)-mouse IgG2aFc (E98-K330)) or an in-line fusion protein of human IL-36R extracellular domain and IL1RAcP extracellular domain expressed with mouse IgG2a Fc tag (hIL-36R-Trap-mFc: mROR1 signal sequence (M1-A29)-human IL36R ecto domain (D20-Y337)-human IL1RacP ecto domain(S21-E359)-mouse IgG2aFc) in HBS-ET running buffer (ranging from 100 nM to 3.7 nM, 3-fold dilutions) were injected over the anti-IL-36R antibody captured surface for 4 minutes at a flow rate of 30 μL/minute and their dissociation in HBS-ET running buffer was monitored for 10 minutes. Kinetic association rate constant (kₐ) and dissociation rate constant (kd) were determined by fitting the real-time sensorgrams to a 1:1 binding model using Scrubber 2.0c curve fitting software. Binding dissociation equilibrium constants (KD) and dissociative half-lives (t_{1/2}) were calculated from the kinetic rate constants as: […]

[2] = biological target: T3, recombinant human IL-36R extracellular …; assay: SPR (Biacore 4000), mAb captured on anti-human Fc, 37°C
Experimental: as §1

[3] = biological target: T1, full-length human IL-36R on cells; assay: cell-based or functional assay
[4] = biological target: T2, Macaca fascicularis IL-36R on cells; assay: cell-based or functional assay

| Binder | 100 nM hIL-36R-MMH Bound (RU) [1] | Kd [1] | koff [1] | kon [1] | t½ [1] | 100 nM hIL-36R-MMH Bound (RU) [2] | Kd [2] | koff [2] | kon [2] | t½ [2] | IC50 [M], NFκB-luciferase, 10 pM hIL-36γ [3] | IC50 [M], NFκB-luciferase, 20 pM hIL-36α [3] | Max Inhibition (%), NFκB-luciferase, 10 pM hIL-36γ [3] | Max Inhibition (%), NFκB-luciferase, 20 pM hIL-36α [3] | IC50 [M], NFκB-luciferase, 300 pM hIL-36γ [4] | IC50 [M], NFκB-luciferase, 500 pM hIL-36α [4] | IC50 [M], NFκB-luciferase, 600 pM hIL-36β [4] | Max Inhibition (%), NFκB-luciferase, 300 pM hIL-36γ [4] | Max Inhibition (%), NFκB-luciferase, 500 pM hIL-36α [4] | Max Inhibition (%), NFκB-luciferase, 600 pM hIL-36β [4] | further results |
| --- | --- | --- | --- | --- | --- | --- | --- | --- | --- | --- | --- | --- | --- | --- | --- | --- | --- | --- | --- | --- | --- |
| B1 | 87 RU | 7.63 nM | 0.000923 s⁻¹ | 121000 M⁻¹ s⁻¹ | 13 min | 111 RU | 15 nM | 0.00237 s⁻¹ | 158000 M⁻¹ s⁻¹ | 5 min | 1.6e-10 M | 1.2e-10 M | 57% | 100% | – | – | – | – | – | – | – |
| B2 | 64 RU | 4.09 nM | 0.000296 s⁻¹ | 72300 M⁻¹ s⁻¹ | 39 min | 106 RU | 4.25 nM | 0.000554 s⁻¹ | 131000 M⁻¹ s⁻¹ | 21 min | 1.3e-10 M | 1.4e-10 M | 24% | 22% | – | – | – | – | – | – | – |
| B3 | 74 RU | 10.2 nM | 0.00168 s⁻¹ | 165000 M⁻¹ s⁻¹ | 7 min | 89 RU | 29.5 nM | 0.00418 s⁻¹ | 142000 M⁻¹ s⁻¹ | 2.8 min | 1.4e-10 M | 1.3e-10 M | 99% | 100% | 2e-10 M | 8.4e-11 M | 1.9e-10 M | 97% | 97% | 98% | IC50 [M], NFκB-luciferase, 15 pM hIL-36β [3]: 1.3e-10 M; Max Inhibition (%), NFκB-luciferase, 15 pM hIL-36β [3]: 100% |
| B4 | 67 RU | 4.82 nM | 0.000579 s⁻¹ | 120000 M⁻¹ s⁻¹ | 20 min | 89 RU | 10.5 nM | 0.00184 s⁻¹ | 176000 M⁻¹ s⁻¹ | 6 min | 1.2e-10 M | 1.9e-10 M | 100% | 101% | 1.8e-10 M | 1.2e-10 M | 1.8e-10 M | 99% | 99% | 99% | IC50 [M], NFκB-luciferase, 15 pM hIL-36β [3]: 2e-10 M; Max Inhibition (%), NFκB-luciferase, 15 pM hIL-36β [3]: 100% |
| B5 | 22 RU | 12.2 nM | 0.000404 s⁻¹ | 33200 M⁻¹ s⁻¹ | 29 min | 25 RU | 13.9 nM | 0.000749 s⁻¹ | 53900 M⁻¹ s⁻¹ | 15 min | – | – | – | – | – | – | – | – | – | – | – |
